What all share (format): biochemical
A short description of data set [1]: ω-transaminase activity assay, 7-aminoheptanol to 7-oxoheptanol. To be noted: for ω-transaminase activity for converting 7-aminoheptanol to 7-oxoheptanol (pyruvate to L-alanine): cell free extract, 10 mM 7-aminoheptanol, 10 mM pyruvate, 25° C., 4 h, against empty vector control, FIG. 19; for ω-transaminase acceptance of 7-oxoheptanol, forming 7-aminoheptanol: concluded from reversibility of the ω-transaminase activity (Example 2). On the procedure: A nucleotide sequence encoding an N-terminal His-tag was added to the Chromobacterium violaceum, Pseudomonas syringae and Rhodobacter sphaeroides genes encoding the ω-transaminases of SEQ ID NOs: 8, 10 and 11, respectively (see FIG. 7) such that N-terminal HIS tagged ω-transaminases could be produced. The modified genes were cloned into a pET21a expression vector under the T7 promoter. Each expression vector was transformed into a BL21[DE3] E. coli host. Each resulting recombinant E. coli strain were cultivated at 37° C. in a 250 mL shake flask culture containing 50 mL LB media and antibiotic selection pressure, with shaking at 230 rpm. Each culture was induced overnight at 16° C. using 1 mM IPTG.
(§1) The pellet from each induced shake flask culture was harvested via centrifugation. Each pellet was resuspended and lysed via sonication. The cell debris was separated from the supernatant via centrifugation and the cell free extract was used immediately in enzyme activity assays.
Enzyme activity assays in the reverse direction (i.e., 7-aminoheptanol to 7-oxoheptanol) were performed in a buffer composed of a final concentration of 50 mM HEPES buffer (pH=7.5), 10 mM 7-aminoheptanol, 10 mM pyruvate, and 100 μM pyridoxyl 5′ phosphate. Each enzyme activity assay reaction was initiated by adding cell free extract of the ω-transaminase gene product or the empty vector control to the assay buffer containing the 7-aminoheptanol and then incubated at 25° C. for 4 h, with shaking at 250 rpm. The formation of L-alanine was quantified via RP-HPLC.

The nature of data set [2]: ω-transaminase activity assay, forward direction, pimelate semialdehyde to 7-aminoheptanoate. To be noted: for ω-transaminase activity for converting pimelate semialdehyde to 7-aminoheptanoate (L-alanine to pyruvate): cell free extract, 10 mM pimelate semialdehyde, 10 mM L-alanine, 25° C., 4 h, against empty vector control, FIG. 16; for reversibility of the ω-transaminase activity: pimelate semialdehyde accepted, 7-aminoheptanoate synthesized: conclusion from forward and reverse assays of Example 2. On the procedure: (§2) A sequence encoding an N-terminal His-tag was added to the genes from Chromobacterium violaceum, Pseudomonas syringae, Rhodobacter sphaeroides, and Vibrio Fluvialis encoding the ω-transaminases of SEQ ID NOs: 8, 10, 11 and 13, respectively (see FIG. 7) such that N-terminal HIS tagged ω-transaminases could be produced. Each of the resulting modified genes was cloned into a pET21a expression vector under control of the T7 promoter and each expression vector was transformed into a BL21[DE3] E. coli host. The resulting recombinant E. coli strains were cultivated at 37° C. in a 250 mL shake flask culture containing 50 mL LB media and antibiotic selection pressure, with shaking at 230 rpm. Each culture was induced overnight at 16° C. using 1 mM IPTG.
as §1
Enzyme activity in the forward direction (i.e., pimelate semialdehyde to 7-aminoheptanoate) was confirmed for the transaminases of SEQ ID NO 10, SEQ ID NO 11 and SEQ ID NO 13. Enzyme activity assays were performed in a buffer composed of a final concentration of 50 mM HEPES buffer (pH=7.5), 10 mM pimelate semialdehyde, 10 mM L-alanine and 100 μM pyridoxyl 5′ phosphate. Each enzyme activity assay reaction was initiated by adding a cell free extract of the ω-transaminase gene product or the empty vector control to the assay buffer containing the pimelate semialdehyde and incubated at 25° C. for 4 h, with shaking at 250 rpm. The formation of pyruvate was quantified via RP-HPLC.

A short description of data set [3]: ω-transaminase activity assay, reverse direction, 7-aminoheptanoate to pimelate semialdehyde. To be noted: cell free extract, 10 mM 7-aminoheptanoate, 10 mM pyruvate, 25° C., 4 h, against empty vector control, FIG. 15. On the procedure: as §2, §1
Enzyme activity assays in the reverse direction (i.e., 7-aminoheptanoate to pimelate semialdehyde) were performed in a buffer composed of a final concentration of 50 mM HEPES buffer (pH=7.5), 10 mM 7-aminoheptanoate, 10 mM pyruvate and 100 μM pyridoxyl 5′ phosphate. Each enzyme activity assay reaction was initiated by adding cell free extract of the ω-transaminase gene product or the empty vector control to the assay buffer containing the 7-aminoheptanoate and incubated at 25° C. for 4 h, with shaking at 250 rpm. The formation of L-alanine from pyruvate was quantified via RP-HPLC.

Data set [4] can be described thus: Carboxylate reductase activity assay, N7-acetyl-7-aminoheptanoate to N7-acetyl-7-aminoheptanal (NADPH consumption). The following applies: 2 mM N7-acetyl-7-aminoheptanoate, enhanced by gene product of sfp, room temperature, 20 min, against empty vector control, FIG. 12. On the procedure:
The activity of each of the N-terminal His-tagged carboxylate reductases of SEQ ID NOs: 3, 6, and 7 (see Examples 4, and FIG. 7) for converting N7-acetyl-7-aminoheptanoate to N7-acetyl-7-aminoheptanal was assayed in triplicate in a buffer composed of a final concentration of 50 mM HEPES buffer (pH=7.5), 2 mM N7-acetyl-7-aminoheptanoate, 10 mM MgCl2, 1 mM ATP, and 1 mM NADPH. The assays were initiated by adding purified carboxylate reductase and phosphopantetheine transferase or the empty vector control to the assay buffer containing the N7-acetyl-7-aminoheptanoate then incubated at room temperature for 20 min. The consumption of NADPH was monitored by absorbance at 340 nm.

With “SEQ ID NO 11: Rhodobacter sphaeroides ω-transaminase, Genbank Accession No. ABA81135.1”, in data set [1], the “ω-transaminase activity for converting 7-aminoheptanol to 7-oxoheptanol (pyruvate to L-alanine)” value is “accepted 7-aminoheptanol as substrate” and the “ω-transaminase acceptance of 7-oxoheptanol, forming 7-aminoheptanol” value (“ω-transaminase acceptance” below) is “accept 7-oxoheptanol as substrate”. Also, in data set [2], the “ω-transaminase activity for converting pimelate semialdehyde to 7-aminoheptanoate (L-alanine to pyruvate)” value is listed as “accepted pimelate semialdehyde as substrate”; the “reversibility of the ω-transaminase activity: pimelate semialdehyde accepted, 7-aminoheptanoate synthesized” value (“reversibility” for short) is “accepted pimelate semialdehyde as substrate and synthesized 7-aminoheptanoate”. For the same molecule, the “ω-transaminase activity for converting 7-aminoheptanoate to pimelate semialdehyde (pyruvate to L-alanine)” value in data set [3] is “accepted 7-aminoheptanote as substrate”.

B1: SEQ ID NO 10: Pseudomonas syringae ω-transaminase, Genbank Accession No. AAY39893.1 (protein, listed as Pseudomonas syringae)
chain: MSANNPQTLEWQALSSEHHLAPFSDYKQLKEKGPRIITRAEGVYLWDSEGNKILDGMSGLWCVAIGYGREELADAASKQMRELPYYNLFFQTAHPPVLELAKAISDIAPEGMNHVFFTGSGSEGNDTMLRMVRHYWALKGQPNKKTIISRVNGYHGSTVAGASLGGMTYMHEQGDLPIPGVVHIPQPYWFGEGGDMTPDEFGIWAAEQLEKKILELGVENVGAFIAEPIQGAGGVIVPPDSYWPKIKEILSRYDILFAADEVICGFGRTSEWFGSDFYGLRPDMMTIAKGLTSGYVPMGGLIVRDEIVAVLNEGGDFNHGFTYSGHPVAAAVALENIRILREEKIVERVRSETAPYLQKRLRELSDHPLVGEVRGVGLLGAIELVKDKTTRERYTDKGAGMICRTFCFDNGLIMRAVGDTMIIAPPLVISFAQIDELVEKARTCLDLTLAVLQG
Take B1: in data set [1], the “ω-transaminase activity for converting 7-aminoheptanol to 7-oxoheptanol (pyruvate to L-alanine)” value was “accepted 7-aminoheptanol as substrate” and the “ω-transaminase acceptance” value is “accept 7-oxoheptanol as substrate”. In data set [2], the “ω-transaminase activity for converting pimelate semialdehyde to 7-aminoheptanoate (L-alanine to pyruvate)” value is “accepted pimelate semialdehyde as substrate”; the “reversibility” value was “accepted pimelate semialdehyde as substrate and synthesized 7-aminoheptanoate”. Further, the “ω-transaminase activity for converting 7-aminoheptanoate to pimelate semialdehyde (pyruvate to L-alanine)” value in data set [3] is given as “accepted 7-aminoheptanote as substrate”.

B2: SEQ ID NO 13: Vibrio fluvialis ω-transaminase, Genbank Accession No. AEA39183.1 (protein, listed as Vibrio fluvialis)
chain: MNKPQSWEARAETYSLYGFTDMPSLHQRGTVVVTHGEGPYIVDVNGRRYLDANSGLWNMVAGFDHKGLIDAAKAQYERFPGYHAFFGRMSDQTVMLSEKLVEVSPFDSGRVFYTNSGSEANDTMVKMLWFLHAAEGKPQKRKILTRWNAYHGVTAVSASMTGKPYNSVFGLPLPGFVHLTCPHYWRYGEEGETEEQFVARLARELEETIQREGADTIAGFFAEPVMGAGGVIPPAKGYFQAILPILRKYDIPVISDEVICGFGRTGNTWGCVTYDFTPDAIISSKNLTAGFFPMGAVILGPELSKRLETAIEAIEEFPHGFTASGHPVGCAIALKAIDVVMNEGLAENVRRLAPRFEERLKHIAERPNIGEYRGIGFMWALEAVKDKASKTPFDGNLSVSERIANTCTDLGLICRPLGQSVVLCPPFILTEAQMDEMFDKLEKALDKVFAEVA
As for B2, in data set [2], the “ω-transaminase activity for converting pimelate semialdehyde to 7-aminoheptanoate (L-alanine to pyruvate)” value was “accepted pimelate semialdehyde as substrate”; the “reversibility” value is “accepted pimelate semialdehyde as substrate and synthesized 7-aminoheptanoate”. The “ω-transaminase activity for converting 7-aminoheptanoate to pimelate semialdehyde (pyruvate to L-alanine)” value in data set [3] is “accepted 7-aminoheptanote as substrate”.

B3: SEQ ID NO 8: Chromobacterium violaceum ω-transaminase, Genbank Accession No. AAQ59697.1 (protein, listed as Chromobacterium violaceum)
chain: MQKQRTTSQWRELDAAHHLHPFTDTASLNQAGARVMTRGEGVYLWDSEGNKIIDGMAGLWCVNVGYGRKDFAEAARRQMEELPFYNTFFKTTHPAVVELSSLLAEVTPAGFDRVFYTNSGSESVDTMIRMVRRYWDVQGKPEKKTLIGRWNGYHGSTIGGASLGGMKYMHEQGDLPIPGMAHIEQPWWYKHGKDMTPDEFGVVAARWLEEKILEIGADKVAAFVGEPIQGAGGVIVPPATYWPEIERICRKYDVLLVADEVICGFGRTGEWFGHQHFGFQPDLFTAAKGLSSGYLPIGAVFVGKRVAEGLIAGGDFNHGFTYSGHPVCAAVAHANVAALRDEGIVQRVKDDIGPYMQKRWRETFSRFEHVDDVRGVGMVQAFTLVKNKAKRELFPDFGEIGTLCRDIFFRNNLIMRACGDHIVSAPPLVMTRAEVDEMLAVAERCLEEFEQTLKARGLA
Consider B3, for which, in data set [1], the “ω-transaminase activity for converting 7-aminoheptanol to 7-oxoheptanol (pyruvate to L-alanine)” value was “accepted 7-aminoheptanol as substrate” and the “ω-transaminase acceptance” value is on record as “accept 7-oxoheptanol as substrate”. The “reversibility” value in data set [2] is “accepted pimelate semialdehyde as substrate and synthesized 7-aminoheptanoate”. In data set [3], the “ω-transaminase activity for converting 7-aminoheptanoate to pimelate semialdehyde (pyruvate to L-alanine)” value is on record as “accepted 7-aminoheptanote as substrate”.

B4: SEQ ID NO 3: Mycobacterium smegmatis carboxylate reductase, Genbank Accession No. ABK71854.1 (protein, listed as Mycobacterium smegmatis)
chain: MTSDVHDATDGVTETALDDEQSTRRIAELYATDPEFAAAAPLPAVVDAAHKPGLRLAEILQTLFTGYGDRPALGYRARELATDEGGRTVTRLLPRFDTLTYAQVWSRVQAVAAALRHNFAQPIYPGDAVATIGFASPDYLTLDLVCAYLGLVSVPLQHNAPVSRLAPILAEVEPRILTVSAEYLDLAVESVRDVNSVSQLVVFDHHPEVDDHRDALARAREQLAGKGIAVTTLDAIADEGAGLPAEPIYTADHDQRLAMILYTSGSTGAPKGAMYTEAMVARLWTMSFITGDPTPVINVNFMPLNHLGGRIPISTAVQNGGTSYFVPESDMSTLFEDLALVRPTELGLVPRVADMLYQHHLATVDRLVTQGADELTAEKQAGAELREQVLGGRVITGFVSTAPLAAEMRAFLDITLGAHIVDGYGLTETGAVTRDGVIVRPPVIDYKLIDVPELGYFSTDKPYPRGELLVRSQTLTPGYYKRPEVTASVFDRDGYYHTGDVMAETAPDHLVYVDRRNNVLKLAQGEFVAVANLEAVFSGAALVRQIFVYGNSERSFLLAVVVPTPEALEQYDPAALKAALADSLQRTARDAELQSYEVPADFIVETEPFSAANGLLSGVGKLLRPNLKDRYGQRLEQMYADIAATQANQLRELRRAAATQPVIDTLTQAAATILGTGSEVASDAHFTDLGGDSLSALTLSNLLSDFFGFEVPVGTIVNPATNLAQLAQHIEAQRTAGDRRPSFTTVHGADATEIRASELTLDKFIDAETLRAAPGLPKVTTEPRTVLLSGANGWLGRFLTLQWLERLAPVGGTLITIVRGRDDAAARARLTQAYDTDPELSRRFAELADRHLRVVAGDIGDPNLGLTPEIWHRLAAEVDLVVHPAALVNHVLPYRQLFGPNVVGTAEVIKLALTERIKPVTYLSTVSVAMGIPDFEEDGDIRTVSPVRPLDGGYANGYGNSKWAGEVLLREAHDLCGLPVATFRSDMILAHPRYRGQVNVPDMFTRLLLSLLITGVAPRSFYIGDGERPRAHYPGLTVDFVAEAVTTLGAQQREGYVSYDVMNPHDDGISLDVFVDWLIRAGHPIDRVDDYDDWVRRFETALTALPEKRRAQTVLPLLHAFRAPQAPLRGAPEPTEVFHAAVRTAKVGPGDIPHLDEALIDKYIRDLREFGLI
On to B4, for which the “carboxylate reductase activity for converting N7-acetyl-7-aminoheptanoate to N7-acetyl-7-aminoheptanal (NADPH consumption, absorbance at 340 nm)” value in data set [4] is on record as “accepted N7-acetyl-7-aminoheptanoate as substrate”.
